Assay results taken from IntAct's records for PubMed 21252223.

B1: Swi5-dependent recombination DNA repair protein 1 homolog (Homo sapiens), Q86XK3 (parent)
chain: MAEGEKNQDFTFKMESPSDSAVVLPSTPQASANPSSPYTNSSRKQPMSATLRERLRKTRFSFNSSYNVVKRLKVESEENDQTFSEKPASSTEENCLEFQESFKHIDSEFEENTNLKNTLKNLNVCESQSLDSGSCSALQNEFVSEKLPKQRLNAEKAKLVKQVQEKEDLLRRLKLVKMYRSKNDLSQLQLLIKKWRSCSQLLLYELQSAVSEENKKLSLTQLIDHYGLDDKLLHYNRSEEEFIDV
partner: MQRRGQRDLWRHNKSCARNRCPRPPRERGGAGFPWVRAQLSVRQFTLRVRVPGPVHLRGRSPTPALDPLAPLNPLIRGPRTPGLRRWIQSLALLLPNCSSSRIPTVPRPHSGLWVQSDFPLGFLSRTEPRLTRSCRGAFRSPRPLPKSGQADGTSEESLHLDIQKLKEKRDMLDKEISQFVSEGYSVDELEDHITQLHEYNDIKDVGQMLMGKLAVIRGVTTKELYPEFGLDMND

Variants of: B1
Conditions: with swi5_human SWI5, Q1ZZU3

Variant	effect of a mutation on the interaction
MAEGEKNQDFTFKMESPSDSAVVLPSTPQASANPSSPYTNSSRKQPMSATLRERLRKTRFSFNSSYNVVKRLKVESEENDQTFSEKPASSTEENCLEFQESFKHIDSEFEENTNLKNTLKNLNVCESQSLDSGSCSALQNEFVSEKLPKQRLNAEKAKLVKQVQEKEDLLRRPKLVKMYRSKNDLSQLQLLIKKWRSCSQLLLYELQSAVSEENKKLSLTQLIDHYGLDDKLLHYNRSEEEFIDV [L173P]	with no effect
